Data from the supplement of paper PMC5998384.

Experiments:
[1] = system: HeLa Kyoto; assay: solubility in G1/S (NP-40 vs SDS abundance) (log2 ratio); higher = more soluble; conditions: cell cycle stage: G1/S
[2] = system: HeLa Kyoto; assay: melting temperature (median over replicates), in situ; higher = more thermally stable
[3] = system: HeLa Kyoto; assay: solubility change mitosis vs G1/S (difference of NP-40 vs SDS log2 ratios) (log2 ratio difference); higher = more soluble in mitosis
[4] = system: HeLa Kyoto; assay: thermal stability score vs G1/S (z-score of summed log2 fold changes over temperatures); higher = more thermally stable than in G1/S
[5] = cell cycle stage: early G1 (4.5 h after nocodazole release)
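Throughout, for melting temperature (median over replicates), in situ: HeLa Kyoto cells synchronized by double thymidine or nocodazole block, proteins quantified by TMT10plex mass spectrometry, three independent biological replicates.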
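Throughout, for solubility change mitosis vs G1/S (difference of NP-40 vs SDS log2 ratios): synchronized HeLa Kyoto cells (double thymidine block for G1/S, nocodazole release for mitosis), protein amounts in NP-40 versus SDS lysates quantified by mass spectrometry, three biological replicates.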
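Throughout, for solubility in G1/S (NP-40 vs SDS abundance): HeLa Kyoto cells arrested at G1/S by double thymidine block, proteins quantified by TMT10plex mass spectrometry in mild NP-40 versus SDS extracts, three biological replicates.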
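Throughout, for thermal stability score vs G1/S (z-score of summed log2 fold changes over temperatures): synchronized HeLa Kyoto cells, proteins quantified by TMT10plex mass spectrometry, three biological replicates, mitosis taken 0.5 h after nocodazole release, G1/S directly after double thymidine block.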

Sequence | solubility in G1/S (log2) [1] | melting temperature ([2]; cell cycle stage: G1/S) | melting temperature ([2]; cell cycle stage: mitosis) | solubility change mitosis (log2) [3] | thermal stability score [4, 5] | thermal stability score ([4]; cell cycle stage: mitosis)
MSLDIQSLDIQCEELSDARWAELLPLLQQCQVVRLDDCGLTEARCKDISSALRVNPALAELNLRSNELGDVGVHCVLQGLQTPSCKIQKLSLQNCCLTGAGCGVLSSTLRTLPTLQELHLSDNLLGDAGLQLLCEGLLDPQCRLEKLQLEYCSLSAASCEPLASVLRAKPDFKELTVSNNDINEAGVRVLCQGLKDSPCQLEALKLESCGVTSDNCRDLCGIVASKASLRELALGSNKLGDVGMAELCPGLLHPSSRLRTLWIWECGITAKGCGDLCRVLRAKESLKELSLAGNELGDEGARLLCETLLEPGCQLESLWVKSCSFTAACCSHFSSVLAQNRFLLELQISNNRLEDAGVRELCQGLGQPGSVLRVLWLADCDVSDSSCSSLAATLLANHSLRELDLSNNCLGDAGILQLVESVRQPGCLLEQLVLYDIYWSEEMEDRLQALEKDKPSLRVIS [RNH1] | 0.188 | 52.8 °C | 52.8 °C | -0.113 | 1.78 | 1.35
MSLEQEEETQPGRLLGRRDAVPAFIEPNVRFWITERQSFIRRFLQWTELLDPTNVFISVESIENSRQLLCTNEDVSSPASADQRIQEAWKRSLATVHPDSSNLIPKLFRPAAFLPFMAPTVFLSMTPLKGIKSVILPQVFLCAYMAAFNSINGNRSYTCKPLERSLLMAGAVASSTFLGVIPQFVQMKYGLTGPWIKRLLPVIFLVQASGMNVYMSRSLESIKGIAVMDKEGNVLGHSRIAGTKAVRETLASRIVLFGTSALIPEVFTYFFKRTQYFRKNPGSLWILKLSCTVLAMGLMVPFSFSIFPQIGQIQYCSLEEKIQSPTEETEIFYHRGV [SFXN4] | -0.194 | 53.9 °C | 54.8 °C | -0.195 | 0.0593 | -1.77
MSLEQRSLHCKPEEALEAQQEALGLVCVQAATSSSSPLVLGTLEEVPTAGSTDPPQSPQGASAFPTTINFTRQRQPSEGSSSREEEGPSTSCILESLFRAVITKKVADLVGFLLLKYRAREPVTKAEMLESVIKNYKHCFPEIFGKASESLQLVFGIDVKEADPTGHSYVLVTCLGLSYDGLLGDNQIMPKTGFLIIVLVMIAMEGGHAPEEEIWEELSVMEVYDGREHSAYGEPRKLLTQDLVQEKYLEYRQVPDSDPARYEFLWGPRALAETSYVKVLEYVIKVSARVRFFFPSLREAALREEEEGV [MAGEA1] | -0.178 | 48.4 °C | 49.5 °C | -0.0297 | 0.313 | 2.38
MSLKSERRGIHVDQSDLLCKKGCGYYGNPAWQGFCSKCWREEYHKARQKQIQEDWELAERLQREEEEAFASSQSSQGAQSLTFSKFEEKKTNEKTRKVTTVKKFFSASSRVGSKKEIQEAKAPSPSINRQTSIETDRVSKEFIEFLKTFHKTGQEIYKQTKLFLEGMHYKRDLSIEEQSECAQDFYHNVAERMQTRGKVPPERVEKIMDQIEKYIMTRLYKYVFCPETTDDEKKDLAIQKRIRALRWVTPQMLCVPVNEDIPEVSDMVVKAITDIIEMDSKRVPRDKLACITKCSKHIFNAIKITKNEPASADDFLPTLIYIVLKGNPPRLQSNIQYITRFCNPSRLMTGEDGYYFTNLCCAVAFIEKLDAQSLNLSQEDFDRYMSGQTSPRKQEAESWSPDACLGVKQMYKNLDLLSQLNERQERIMNEAKKLEKDLIDWTDGIAREVQDIVEKYPLEIKPPNQPLAAIDSENVENDKLPPPLQPQVYAG [RABGEF1] | 0.143 | 52.3 °C | 50.3 °C | -0.0709 | 0.899 | -2.37
MSLQWTAVATFLYAEVFVVLLLCIPFISPKRWQKIFKSRLVELLVSYGNTFFVVLIVILVLLVIDAVREIRKYDDVTEKVNLQNNPGAMEHFHMKLFRAQRNLYIAGFSLLLSFLLRRLVTLISQQATLLASNEAFKKQAESASEAAKKYMEENDQLKKGAAVDGGKLDVGNAEVKLEEENRSLKADLQKLKDELASTKQKLEKAENQVLAMRKQSEGLTKEYDRLLEEHAKLQAAVDGPMDKKEE [BCAP31] | 0.132 | 55.5 °C | 55.5 °C | -0.101 | -4.24 | -4.65
MSLSSGASGGKGVDANPVETYDSGDEWDIGVGNLIIDLDADLEKDQQKLEMSGSKEVGIPAPNAVATLPDNIKFVTPVPGPQGKEGKSKSKRSKSGKDTSKPTPGTSLFTPSEGAASKKEVQGRSGDGANAGGLVAAIAPKGSEKAAKASRSVAGSKKEKENSSSKSKKERSEGVGTCSEKDPGVLQPVPLGGRGGQYDGSAGVDTGAVEPLGSIAIEPGAALNPLGTKPEPEEGENECRLLKKVKSEKMESPVSTPAVLPIHLLVPVVNNDISSPCEQIMVRTRSVGVNTCDVALATEPECLGPCEPGTSVNLEGIVWQETEDGMLVVNVTWRNKTYVGTLLDCTRHDWAPPRFCDSPTSDLEMRNGRGRGKRMRPNSNTPVNETATASDSKGTSNSSKTRAGANSKGRRGSQNSSEHRPPASSTSEDVKASPSSANKRKNKPLSDMELNSSSEDSKGSKRVRTNSMGSATGPLPGTKVEPTVLDRNCPSPVLIDCPHPNCNKKYKHINGLKYHQAHAHTDDDSKPEADGDSEYGEEPILHADLGSCNGASVSQKGSLSPARSATPKVRLVEPHSPSPSSKFSTKGLCKKKLSGEGDTDLGALSNDGSDDGPSVMDETSNDAFDSLERKCMEKEKCKKPSSLKPEKIPSKSLKSARPIAPAIPPQQIYTFQTATFTAASPGSSSGLTATVAQAMPNSPQLKPIQPKPTVMGEPFTVNPALTPAKDKKKKDKKKKESSKELESPLTPGKVCRAEEGKSPFRESSGDGMKMEGLLNGSSDPHQSRLASIKAEADKIYSFTDNAPSPSIGGSSRLENTTPTQPLTPLHVVTQNGAEASSVKTNSPAYSDISDAGEDGEGKVDSVKSKDAEQLVKEGAKKTLFPPQPQSKDSPYYQGFESYYSPSYAQSSPGALNPSSQAGVESQALKTKRDEEPESIEGKVKNDICEEKKPELSSSSQQPSVIQQRPNMYMQSLYYNQYAYVPPYGYSDQSYHTHLLSTNTAYRQQYEEQQKRQSLEQQQRGVDKKAEMGLKEREAALKEEWKQKPSIPPTLTKAPSLTDLVKSGPGKAKEPGADPAKSVIIPKLDDSSKLPGQAPEGLKVKLSDASHLSKEASEAKTGAECGRQAEMDPILWYRQEAEPRMWTYVYPAKYSDIKSEDERWKEERDRKLKEERSRSKDSVPKEDGKESTSSDCKLPTSEESRLGSKEPRPSVHVPVSSPLTQHQSYIPYMHGYSYSQSYDPNHPSYRSMPAVMMQNYPGSYLPSSYSFSPYGSKVSGGEDADKARASPSVTCKSSSESKALDILQQHASHYKSKSPTISDKTSQERDRGGCGVVGGGGSCSSVGGASGGERSVDRPRTSPSQRLMSTHHHHHHLGYSLLPAQYNLPYAAGLSSTAIVASQQGSTPSLYPPPRR [ZNF609] | 0.0412 | 49.9 °C | 52.1 °C | 0.204 | -1.11 | 2.18
MSMPDAMPLPGVGEELKQAKEIEDAEKYSFMATVTKAPKKQIQFADDMQEFTKFPTKTGRRSLSRSISQSSTDSYSSAASYTDSSDDEVSPREKQQTNSKGSSNFCVKNIKQAEFGRREIEIAEQDMSALISLRKRAQGEKPLAGAKIVGCTHITAQTAVLIETLCALGAQCRWSACNIYSTQNEVAAALAEAGVAVFAWKGESEDDFWWCIDRCVNMDGWQANMILDDGGDLTHWVYKKYPNVFKKIRGIVEESVTGVHRLYQLSKAGKLCVPAMNVNDSVTKQKFDNLYCCRESILDGLKRTTDVMFGGKQVVVCGYGEVGKGCCAALKALGAIVYITEIDPICALQACMDGFRVVKLNEVIRQVDVVITCTGNKNVVTREHLDRMKNSCIVCNMGHSNTEIDVTSLRTPELTWERVRSQVDHVIWPDGKRVVLLAEGRLLNLSCSTVPTFVLSITATTQALALIELYNAPEGRYKQDVYLLPKKMDEYVASLHLPSFDAHLTELTDDQAKYLGLNKNGPFKPNYYRY [AHCYL1] | -0.111 | 56.4 °C | 54.6 °C | -0.119 | -5.66 | -9.49
MSNEVETSATNGQPDQQAAPKAPSKKEKKKGPEKTDEYLLARFKGDGVKYKAKLIGIDDVPDARGDKMSQDSMMKLKGMAAAGRSQGQHKQRIWVNISLSGIKIIDEKTGVIEHEHPVNKISFIARDVTDNRAFGYVCGGEGQHQFFAIKTGQQAEPLVVDLKDLFQVIYNVKKKEEEKKKIEEASKAVENGSEALMILDDQTNKLKSGVDQMDLFGDMSTPPDLNSPTESKDILLVDLNSEIDTNQNSLRENPFLTNGITSCSLPRPTPQASFLPENAFSANLNFFPTPNPDPFRDDPFTQPDQSTPSSFDSLKSPDQKKENSSSSSTPLSNGPLNGDVDYFGQQFDQISNRTGKQEAQAGPWPFSSSQTQPAVRTQNGVSEREQNGFSVKSSPNPFVGSPPKGLSIQNGVKQDLESSVQSSPHDSIAIIPPPQSTKPGRGRRTAKSSANDLLASDIFAPPVSEPSGQASPTGQPTALQPNPLDLFKTSAPAPVGPLVGLGGVTVTLPQAGPWNTASLVFNQSPSMAPGAMMGGQPSGFSQPVIFGTSPAVSGWNQPSPFAASTPPPVPVVWGPSASVAPNAWSTTSPLGNPFQSNIFPAPAVSTQPPSMHSSLLVTPPQPPPRAGPPKDISSDAFTALDPLGDKEIKDVKEMFKDFQLRQPPAVPARKGEQTSSGTLSAFASYFNSKVGIPQENADHDDFDANQLLNKINEPPKPAPRQVSLPVTKSTDNAFENPFFKDSFGSSQASVASSQPVSSEMYRDPFGNPFA [DAB2] | 0.277 | 48.5 °C | 50.3 °C | -0.113 | 2.68 | 5.04
MSNRVVCREASHAGSWYTASGPQLNAQLEGWLSQVQSTKRPARAIIAPHAGYTYCGSCAAHAYKQVDPSITRRIFILGPSHHVPLSRCALSSVDIYRTPLYDLRIDQKIYGELWKTGMFERMSLQTDEDEHSIEMHLPYTAKAMESHKDEFTIIPVLVGALSESKEQEFGKLFSKYLADPSNLFVVSSDFCHWGQRFRYSYYDESQGEIYRSIEHLDKMGMSIIEQLDPVSFSNYLKKYHNTICGRHPIGVLLNAITELQKNGMNMSFSFLNYAQSSQCRNWQDSSVSYAAGALTVH [MEMO1] | 0.029 | 53.7 °C | 54.2 °C | -0.0409 | -0.361 | -0.452
MSNVSEERRKRQQNIKEGLQFIQSPLSYPGTQEQYAVYLRALVRNLFNEGNDVYREHDWNNSISQYTEALNIADYAKSEEILIPKEIIEKLYINRIACYSNMGFHDKVLEDCNIVLSLNASNCKALYRKSKALSDLGRYKKAYDAVAKCSLAVPQDEHVIKLTQELAQKLGFKIRKAYVRAELSLKSVPGDGATKALNHSVEDIEPDLLTPRQEAVPVVSLPAPSFSHEVGSELASVPVMPLTSILPLQVEESALPSAVLANGGKMPFTMPEAFLDDGDMVLGDELDDLLDSAPETNETVMPSALVRGPLQTASVSPSMPFSASLLGTLPIGARYAPPPSFSEFYPPLTSSLEDFCSSLNSFSMSESKRDLSTSTSREGTPLNNSNSSLLLMNGPGSLFASENFLGISSQPRNDFGNFFGSAVTKPSSSVTPRHPLEGTHELRQACQICFVKSGPKLMDFTYHANIDHKCKKDILIGRIKNVEDKSWKKIRPRPTKTNYEGPYYICKDVAAEEECRYSGHCTFAYCQEEIDVWTLERKGAFSREAFFGGNGKINLTVFKLLQEHLGEFIFLCEKCFDHKPRMISKRNKDNSTACSHPVTKHEFEDNKCLVHILRETTVKYSKIRSFHGQCQLDLCRHEVRYGCLREDECFYAHSLVELKVWIMQNETGISHDAIAQESKRYWQNLEANVPGAQVLGNQIMPGFLNMKIKFVCAQCLRNGQVIEPDKNRKYCSAKARHSWTKDRRAMRVMSIERKKWMNIRPLPTKKQMPLQFDLCNHIASGKKCQYVGNCSFAHSPEEREVWTYMKENGIQDMEQFYELWLKSQKNEKSEDIASQSNKENGKQIHMPTDYAEVTVDFHCWMCGKNCNSEKQWQGHISSEKHKEKVFHTEDDQYCWQHRFPTGYFSICDRYMNGTCPEGNSCKFAHGNAELHEWEERRDALKMKLNKARKDHLIGPNDNDFGKYSFLFKDLN [ZC3H7A] | -0.49 | 48.5 °C | 47.7 °C | 0.169 | 0.548 | 2.36
